Legend:
[1] = molecular target: T1, SARS-CoV-2 spike protein receptor binding domain (RBD), monomeric (SARS-CoV-2), P0DTC2
[2] = molecular target: T1, SARS-CoV-2 spike protein receptor …; remark: listed apart in the source

B1: DNA-LCB (designed binder)
chain: CDKEWILQKIYEIMRLLDELGHAEASMRVSDLIYEFMKKGDERLLEEAERLLEEVER
modifications: not checked
Fluorescence (average) [1]: 2.08e+07
protein coverage [2]: 71.6%

— US20240408194A1, “DNA ORIGAMI SUBUNIT VACCINE FOR PREVENTION OF SARS-CoV-2 VARIANT INFECTION” (priority 2021, published 2024)
